Where a chain is given by its changes, count along the chain named. Numbers in names are those of the source.

4 proteins from paper doi:10.1101/249060 (bioRxiv, 2018) can be followed below.

The series deals with the molecule itself. The series is described as follows: SEC.

B1: His6-PafE, wild type, purified alone (natural protein)
chain: MVIGLSTGSDDDDVEVIGGVDPRLIAVQENDSDESSLTDLVEQPAKVMRIGTMIKQLLEEVRAAPLDEASRNRLRDIHATSIRELEDGLAPELREELDRLTLPFNEDAVPSDAELRIAQAQLVGWLEGLFHGIQTALFAQQMAARAQLQQMRQGALPPGVGKSGQHGHGTGQYL
Turning to B1, the binding result is “binds”.

B2: PafE_(P65G) (natural protein)
chain: B1 chain with P65G
Take B2: the binding result is reported as “binds”.

B3: PafE_(F138E) (natural protein)
chain: B1 chain with F138E
In the case of B3, the binding result is given as “binds”.

B4: PafE-PafE linear dimer (PafE_(1-155)-PafE_(1-174)) (other)
chain: MVIGLSTGSDDDDVEVIGGVDPRLIAVQENDSDESSLTDLVEQPAKVMRIGTMIKQLLEEVRAAPLDEASRNRLRDIHATSIRELEDGLAPELREELDRLTLPFNEDAVPSDAELRIAQAQLVGWLEGLFHGIQTALFAQQMAARAQLQQMRQGAGSGNSMVIGLSTGSDDDDVEVIGGVDPRLIAVQENDSDESSLTDLVEQPAKVMRIGTMIKQLLEEVRAAPLDEASRNRLRDIHATSIRELEDGLAPELREELDRLTLPFNEDAVPSDAELRIAQAQLVGWLEGLFHGIQTALFAQQMAARAQLQQMRQGALPPGVGKSGQHGHGTGQYL
Take B4: the binding result is listed as “binds”.
